Laboratory results taken from paper PMC5929487.
Where “and” joins values, the source holds several entries; their conditions need not be identical. Equal values may be shown once. Each block holds one substance with its values, some of them ahead of it.

What was measured:
[1] = biological target: epidermal growth factor receptor (ovine pulmonary artery smooth muscle cells) (ovine (endogenous in PASMC)); assay: SDS-PAGE and Western blot of SDS-resistant dimer
[2] = biological target: epidermal growth factor receptor (rat lung) (rat (endogenous in lung tissue)); assay: SDS-PAGE and Western blot of SDS-resistant dimer
[3] = biological target: recombinant human catalase (human) (UniProt P04040); assay: native gel or EMSA
[4] = biological target: recombinant human catalase (human) (UniProt P04040); assay: SEC

stoichiometry N [1]: 2
Substance: epidermal growth factor receptor (ovine pulmonary artery smooth muscle cells)

stoichiometry N [2]: 2
Substance: epidermal growth factor receptor (rat lung)

stoichiometry N [3]: 4
stoichiometry N [4]: 4 and 3 and 2
Substance: recombinant human catalase (from UniProt P04040 1-527) (enzyme)
